The text below walks through data of doi:10.1101/2023.03.13.532366 (bioRxiv, 2023).

Assay [1] addresses hIL-12Rβ1_(D3-D5) (domains 3 to 5 of human IL-12 receptor β1) (human, UniProt P42701). As to the kind of experiment: crystal structure.
Assay [2] addresses T1, biotinylated mIL-12Rβ2_(D1-D6)-Casp3-AviTag-His6 (mouse, UniProt P97378 24-637, biotin on the AviTag (in vitro biotinylation with BirA)).
T1 sequence (looked up): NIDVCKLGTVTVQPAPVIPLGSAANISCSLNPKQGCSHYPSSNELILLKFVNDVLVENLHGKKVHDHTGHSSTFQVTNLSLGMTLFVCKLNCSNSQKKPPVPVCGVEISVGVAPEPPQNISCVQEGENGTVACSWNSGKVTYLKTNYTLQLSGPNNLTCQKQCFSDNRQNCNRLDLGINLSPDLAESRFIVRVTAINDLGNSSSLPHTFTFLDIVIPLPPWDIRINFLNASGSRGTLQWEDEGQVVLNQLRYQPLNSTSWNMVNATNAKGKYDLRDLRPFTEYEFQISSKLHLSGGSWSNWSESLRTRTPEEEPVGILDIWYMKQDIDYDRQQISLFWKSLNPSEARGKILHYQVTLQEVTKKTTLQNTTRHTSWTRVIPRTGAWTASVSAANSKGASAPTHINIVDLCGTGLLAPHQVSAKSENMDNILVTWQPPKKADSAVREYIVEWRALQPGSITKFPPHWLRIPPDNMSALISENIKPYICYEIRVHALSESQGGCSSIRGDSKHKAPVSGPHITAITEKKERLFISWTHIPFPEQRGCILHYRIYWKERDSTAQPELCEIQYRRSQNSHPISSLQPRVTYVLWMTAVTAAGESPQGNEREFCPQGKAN
As to the kind of experiment: BLI. Background: BLI is a label-free optical method that tracks binding on a fibre tip over time.

B1: Fab4 (wild-type; antigen-binding portion of an antagonistic anti-IL-12Rβ1 antibody) (Fab, V domains shown)
VH: QVQLVESGGGVVQPGRSLRLSCAASGFTFTSYGMSWVRQAPGKGLEWVAGISYDASDTEYADSVKGRFTISRDNSKNTLYLQMNSLRAEDTAVYYCARSPDYIIDYGFDYWGRGTLVTVSS
VL: AIQMTQSPSSLSASVGDRVTITCRASQGISSDLAWYQQKPGKAPKLLIYDASSLQSGVPSRFSGSGSGTDFTLTISSLQPEDFATYYCQQYWWYPFTFGQGTKVEIK
Regarding B1, the binding result in assay [1] was “binds”.

B2: mIL-12 (mIL-12a-AviTag-His6 and untagged mIL-12b), analyte in BLI (complex, mouse)
chain 1: RVIPVSGPARCLSQSRNLLKTTDDMVKTAREKLKHYSCTAEDIDHEDITRDQTSTLKTCLPLELHKNESCLATRETSSTTRGSCLPPQKTSLMMTLCLGSIYEDLKMYQTEFQAINAALQNHNHQQIILDKGMLVAIDELMQSLNHNGETLRQKPPVGEADPYRVKMKLCILLHAFSTRVVTINRVMGYLSSA
chain 2: MWELEKDVYVVEVDWTPDAPGETVNLTCDTPEEDDITWTSDQRHGVIGSGKTLTITVKEFLDAGQYTCHKGGETLSHSHLLLHKKENGIWSTEILKNFKNKTFLKCEAPNYSGRFTCSWLVQRNMDLKFNIKSSSSSPDSRAVTCGMASLSAEKVTLDQRDYEKYSVSCQEDVTCPTAEETLPIELALEARQQNKYENYSTSFFIRDIIKPDPPKNLQMKPLKNSQVEVSWEYPDSWSTPHSYFSLKFFVRIQRKKEKMKETEEGCNQKGAFLVEKTSTEVQCKGGNVCVQAQDRYYNSSCSKWACVPCRVRS
For B2, the binding result in assay [2] was “binds”.
